{"source": "patent US20200190186A1", "key": {"mouse TIM3 (mouse) [1]": {"molecular_target": "mouse TIM3 (mouse) (UniProt Q8VIM0)", "sequence (Q8VIM0 20-281)": "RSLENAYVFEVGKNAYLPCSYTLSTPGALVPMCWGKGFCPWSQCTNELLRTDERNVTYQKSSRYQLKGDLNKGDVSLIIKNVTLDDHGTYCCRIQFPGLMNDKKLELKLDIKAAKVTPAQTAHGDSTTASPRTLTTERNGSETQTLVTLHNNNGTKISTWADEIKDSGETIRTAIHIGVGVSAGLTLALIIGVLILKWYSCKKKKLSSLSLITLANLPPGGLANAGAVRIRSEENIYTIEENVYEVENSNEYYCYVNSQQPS", "test": "binding to activated mouse T cells, compared with TIM3.18 on human TIM-3"}, "mouse TIM3 (mouse) [2]": {"molecular_target": "mouse TIM3 (mouse) (UniProt Q8VIM0)", "test": "binding to activated mouse T cells; method not stated"}}, "data": [{"substance": "RMT3-23, rat anti-mouse TIM-3 commercial antibody (Bio-X-Cell)", "values": [{"measurement": "fold weaker EC50 than TIM3.18 on human TIM-3", "setting": "mouse TIM3 (mouse) [1]", "result": 17, "unit": "fold"}, {"measurement": "EC50", "setting": "mouse TIM3 (mouse) [2]", "result": 1.7, "unit": "nM"}]}]}
